Experimental data reported in patent US20250171562A1 (ALK ABELL, published 2025).

B1: NIgG4B2A1(RS) (Fc fusion)
chain 1: QVQLVESGGGLVQAGGSLRLSCAVFGSTFSNNVADWYRQAPGKQRELVARISASGATREYGDSVKGRFTISRDDAKNTMYLQMNNLKPEDTAVYRCHKIEWEDLSRKDYWGQGTQVTVSRSGPPCPPCPAPEFLGGPSVFLFPPKPKDTLMISRTPEVTCVVVDVSQEDPEVQFNWYVDGVEVHNAKTKPREEQFNSTYRVVSVLTVLHQDWLNGKEYKCKVSNKGLPSSIEKTISKAKGQPREPQVYTLPPCQEEMTKNQVSLWCLVKGFYPSDIAVEWESNGQPENNYKTTPPVLDSDGSFFLYSRLTVDKSRWQEGNVFSCSVMHEALHNHYTQKSLSLSLGK
chain 2: EVQLLESGGGLVQPGGSLRLSCAASGFTFGNYDMAWVRQAPGKRPEWVSSIDTGGDITHYADSVKGRFTISRDNAKNTLYLQMNSLRPEDTAVYWCATDEEYALGPNEFDYYGQGTLVTVSSRSGPPCPPCPAPEFLGGPSVFLFPPKPKDTLMISRTPEVTCVVVDVSQEDPEVQFNWYVDGVEVHNAKTKPREEQFNSTYRVVSVLTVLHQDWLNGKEYKCKVSNKGLPSSIEKTISKAKGQPREPQVCTLPPSQEEMTKNQVSLSCAVKGFYPSDIAVEWESNGQPENNYKTTPPVLDSDGSFFLVSRLTVDKSRWQEGNVFSCSVMHEALHNHYTQKSLSLSLGK
B2: CIgG4B1A2(G4S)3 (Fc fusion)
chain 1: GPPCPPCPAPEFLGGPSVFLFPPKPKDTLMISRTPEVTCVVVDVSQEDPEVQFNWYVDGVEVHNAKTKPREEQFNSTYRVVSVLTVLHQDWLNGKEYKCKVSNKGLPSSIEKTISKAKGQPREPQVYTLPPCQEEMTKNQVSLWCLVKGFYPSDIAVEWESNGQPENNYKTTPPVLDSDGSFFLYSRLTVDKSRWQEGNVFSCSVMHEALHNHYTQKSLSLSLGKGGGGSGGGGSGGGGSQVQLQESGGGLVQTGGSLRLSCAVHGRTFSNTGMGWFRQAPGNERQFVAIISPSGTSTYYADSVKGRFTISRDPAKNTVYLQMNSLKMDDTAVYYCAASYGSNWSTLRHQRRNEYDAWGQGTQVAVS
chain 2: GPPCPPCPAPEFLGGPSVFLFPPKPKDTLMISRTPEVTCVVVDVSQEDPEVQFNWYVDGVEVHNAKTKPREEQFNSTYRVVSVLTVLHQDWLNGKEYKCKVSNKGLPSSIEKTISKAKGQPREPQVCTLPPSQEEMTKNQVSLSCAVKGFYPSDIAVEWESNGQPENNYKTTPPVLDSDGSFFLVSRLTVDKSRWQEGNVFSCSVMHEALHNHYTQKSLSLSLGKGGGGSGGGGSGGGGSEVQLLESGGGLVQPGGSLRLSCAASGFRFGNYDMAWVRQAPGKRYEWVSSIDTGGDITHYADSVKGRFTISRDNAKNTLYLQMNSLRPEDTAEYWCATDEEYALGPNEFDYYGQGTLVTVS
B3: NIgG4B2A1(G4S)2 (Fc fusion)
chain 1: QVQLVESGGGLVQAGGSLRLSCAVFGSTFSNNVADWYRQAPGKQRELVARISASGATREYGDSVKGRFTISRDDAKNTMYLQMNNLKPEDTAVYRCHKIEWEDLSRKDYWGQGTQVTVSGGGGSGGGGSGPPCPPCPAPEFLGGPSVFLFPPKPKDTLMISRTPEVTCVVVDVSQEDPEVQFNWYVDGVEVHNAKTKPREEQFNSTYRVVSVLTVLHQDWLNGKEYKCKVSNKGLPSSIEKTISKAKGQPREPQVYTLPPCQEEMTKNQVSLWCLVKGFYPSDIAVEWESNGQPENNYKTTPPVLDSDGSFFLYSRLTVDKSRWQEGNVFSCSVMHEALHNHYTQKSLSLSLGK
chain 2: EVQLLESGGGLVQPGGSLRLSCAASGFTFGNYDMAWVRQAPGKRPEWVSSIDTGGDITHYADSVKGRFTISRDNAKNTLYLQMNSLRPEDTAVYWCATDEEYALGPNEFDYYGQGTLVTVSSGGGGSGGGGSGPPCPPCPAPEFLGGPSVFLFPPKPKDTLMISRTPEVTCVVVDVSQEDPEVQFNWYVDGVEVHNAKTKPREEQFNSTYRVVSVLTVLHQDWLNGKEYKCKVSNKGLPSSIEKTISKAKGQPREPQVCTLPPSQEEMTKNQVSLSCAVKGFYPSDIAVEWESNGQPENNYKTTPPVLDSDGSFFLVSRLTVDKSRWQEGNVFSCSVMHEALHNHYTQKSLSLSLGK
B4: NIgG4B2A1(G4S)3 (Fc fusion)
chain 1: QVQLVESGGGLVQAGGSLRLSCAVFGSTFSNNVADWYRQAPGKQRELVARISASGATREYGDSVKGRFTISRDDAKNTMYLQMNNLKPEDTAVYRCHKIEWEDLSRKDYWGQGTQVTVSGGGGSGGGGSGGGGSGPPCPPCPAPEFLGGPSVFLFPPKPKDTLMISRTPEVTCVVVDVSQEDPEVQFNWYVDGVEVHNAKTKPREEQFNSTYRVVSVLTVLHQDWLNGKEYKCKVSNKGLPSSIEKTISKAKGQPREPQVYTLPPCQEEMTKNQVSLWCLVKGFYPSDIAVEWESNGQPENNYKTTPPVLDSDGSFFLYSRLTVDKSRWQEGNVFSCSVMHEALHNHYTQKSLSLSLGK
chain 2: EVQLLESGGGLVQPGGSLRLSCAASGFTFGNYDMAWVRQAPGKRPEWVSSIDTGGDITHYADSVKGRFTISRDNAKNTLYLQMNSLRPEDTAVYWCATDEEYALGPNEFDYYGQGTLVTVSSGGGGSGGGGSGGGGSGPPCPPCPAPEFLGGPSVFLFPPKPKDTLMISRTPEVTCVVVDVSQEDPEVQFNWYVDGVEVHNAKTKPREEQFNSTYRVVSVLTVLHQDWLNGKEYKCKVSNKGLPSSIEKTISKAKGQPREPQVCTLPPSQEEMTKNQVSLSCAVKGFYPSDIAVEWESNGQPENNYKTTPPVLDSDGSFFLVSRLTVDKSRWQEGNVFSCSVMHEALHNHYTQKSLSLSLGK
B5: CIgG4B1A2(G4S)2 (Fc fusion)
chain 1: GPPCPPCPAPEFLGGPSVFLFPPKPKDTLMISRTPEVTCVVVDVSQEDPEVQFNWYVDGVEVHNAKTKPREEQFNSTYRVVSVLTVLHQDWLNGKEYKCKVSNKGLPSSIEKTISKAKGQPREPQVYTLPPCQEEMTKNQVSLWCLVKGFYPSDIAVEWESNGQPENNYKTTPPVLDSDGSFFLYSRLTVDKSRWQEGNVFSCSVMHEALHNHYTQKSLSLSLGKGGGGSGGGGSQVQLQESGGGLVQTGGSLRLSCAVHGRTFSNTGMGWFRQAPGNERQFVAIISPSGTSTYYADSVKGRFTISRDPAKNTVYLQMNSLKMDDTAVYYCAASYGSNWSTLRHQRRNEYDAWGQGTQVAVS
chain 2: GPPCPPCPAPEFLGGPSVFLFPPKPKDTLMISRTPEVTCVVVDVSQEDPEVQFNWYVDGVEVHNAKTKPREEQFNSTYRVVSVLTVLHQDWLNGKEYKCKVSNKGLPSSIEKTISKAKGQPREPQVCTLPPSQEEMTKNQVSLSCAVKGFYPSDIAVEWESNGQPENNYKTTPPVLDSDGSFFLVSRLTVDKSRWQEGNVFSCSVMHEALHNHYTQKSLSLSLGKGGGGSGGGGSEVQLLESGGGLVQPGGSLRLSCAASGFRFGNYDMAWVRQAPGKRYEWVSSIDTGGDITHYADSVKGRFTISRDNAKNTLYLQMNSLRPEDTAEYWCATDEEYALGPNEFDYYGQGTLVTVS
B6: NIgG4B2A1(G4S)1 (Fc fusion)
chain 1: QVQLVESGGGLVQAGGSLRLSCAVFGSTFSNNVADWYRQAPGKQRELVARISASGATREYGDSVKGRFTISRDDAKNTMYLQMNNLKPEDTAVYRCHKIEWEDLSRKDYWGQGTQVTVSGGGGSGPPCPPCPAPEFLGGPSVFLFPPKPKDTLMISRTPEVTCVVVDVSQEDPEVQFNWYVDGVEVHNAKTKPREEQFNSTYRVVSVLTVLHQDWLNGKEYKCKVSNKGLPSSIEKTISKAKGQPREPQVYTLPPCQEEMTKNQVSLWCLVKGFYPSDIAVEWESNGQPENNYKTTPPVLDSDGSFFLYSRLTVDKSRWQEGNVFSCSVMHEALHNHYTQKSLSLSLGK
chain 2: EVQLLESGGGLVQPGGSLRLSCAASGFTFGNYDMAWVRQAPGKRPEWVSSIDTGGDITHYADSVKGRFTISRDNAKNTLYLQMNSLRPEDTAVYWCATDEEYALGPNEFDYYGQGTLVTVSSGGGGSGPPCPPCPAPEFLGGPSVFLFPPKPKDTLMISRTPEVTCVVVDVSQEDPEVQFNWYVDGVEVHNAKTKPREEQFNSTYRVVSVLTVLHQDWLNGKEYKCKVSNKGLPSSIEKTISKAKGQPREPQVCTLPPSQEEMTKNQVSLSCAVKGFYPSDIAVEWESNGQPENNYKTTPPVLDSDGSFFLVSRLTVDKSRWQEGNVFSCSVMHEALHNHYTQKSLSLSLGK

Molecular target: T1, recombinant human IgE (human, UniProt P01854-1 1-428)
T1 construct: made in-house (ALK); preloaded on immobilised FcεRIα in the displacement ELISA
Assay: IgE-FcεRIα displacement ELISA
In short: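 Streptavidin-coated plates carried site-specifically biotinylated recombinant human FcεRIα, loaded with recombinant human IgE at 13 ng/ml. sdAbs in a pM–μM series were added for 1 h, and displaced IgE was washed off. Percent displacement was the signal reduction versus the no-sdAb control, giving EC50 and maximal effect.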

T1 sequence (P01854 other isoform, or with tags, fused parts or gaps): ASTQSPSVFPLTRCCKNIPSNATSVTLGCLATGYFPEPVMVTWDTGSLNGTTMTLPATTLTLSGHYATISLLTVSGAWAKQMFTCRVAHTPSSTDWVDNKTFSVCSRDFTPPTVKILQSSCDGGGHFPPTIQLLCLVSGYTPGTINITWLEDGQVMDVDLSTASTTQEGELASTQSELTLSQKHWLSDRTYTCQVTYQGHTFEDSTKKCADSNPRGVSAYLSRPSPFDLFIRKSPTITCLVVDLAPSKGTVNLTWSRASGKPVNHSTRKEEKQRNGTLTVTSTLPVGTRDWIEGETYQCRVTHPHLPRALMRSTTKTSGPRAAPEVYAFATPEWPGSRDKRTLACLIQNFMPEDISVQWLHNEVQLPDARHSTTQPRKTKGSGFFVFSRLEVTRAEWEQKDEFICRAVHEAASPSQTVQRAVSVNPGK

Max effect [%] | EC50 [nM] | Binder
> 95 | – | B1
> 95 | 2.5 | B2
> 95 | – | B3
> 95 | – | B4
> 95 | 2.7 | B5
> 95 | – | B6
